B1: BDNF: brain-derived neurotrophic factor, member of the neurotrophin nerve growth factor family, purchased from Merck (protein, UniProt P23560 19-247, looked up)
Neurotrophic factor BDNF …: APMKEANIRGQGGLAYPGVRTHGTLESVNGPKAGSRGLTSLADTFEHVIEELLDEDQKVRPNEENNKDADLYTSRVMLSSQVPLEPPLLFLLEEYKNYLDAANMSMRVRRHSDPARRGELSVCDSISEWVTAADKKTAVDMSGGTVTVLEKVPVSKGQLKQYFYETKCNPMGYTKEGCRGIDKRHWNSQCRTTQSYVRALTMDSKKRIGWRFIRIDTSCVCTLTIKRGR

Columns and labels:
[1] = test system: Entorhinal-hippocampal slices; experiment: Regeneration of entorhinal-hippocampal projection in lesioned organotypic slice culture (Dil tracing); assay type: cell-based, mice; settings: slices treated with either PKA or ATP alone, 8 days
Protocol: (A) Organotypic culture of Entorhinal-hippocampal slices was prepared from 129X1/SvJJmsSlc (albino) mice postnatal day 5 and 6. Culture media were changed every 2 days. […], On the day in vitro (DIV) 10, the entorhinal-hippocampal projection was transected with sterile scalpel brade. The lesioned slices were cultured for 8 days with or without 1250 U/ml PKA and 100 μM ATP. On the DIV17, a small aliquot of Dil paste (Invitrogen) was applied on the entorhinal side of the transection. […] Location of lesion made at DIV 10 is indicated as a white dot line. (B) Intensity of Dil signal near the dentate gyrus was measured with ImageJ (version 1.42q, National institute of health, USA). Measured area (100 μm square) was indicated in (A) as a open white square. Intensity was indicated as a percentage of Dil signal in control (not lesioned). Experiment was repeated for 5 time in triplicate. Typical images are indicated in (A), and average of the 5 independent experiments was plotted in (B). A student t-test was used to assess statistical significance.
In FIG. 10, entorhinal-hippocampal slices from mice postnatal day 5 or 6 were transected on day in vitro (DIV) 10, and they were incubated with or without PKA and ATP for 8 days. […]

NgR1 = experiment: Phosphorylation of endogenous NgR1 (upper band, immunoblotting) in RA-treated SH-SY5Y cells; assay type: cell-based, human; settings: BDNF treatment 24 hours
Protocol: (§1) FIG. 1. BDNF promotes neurite outgrowth of RA-treated SH-SY5Y, and induces phosphorylation of NgR1. (A) SH-SY5Y cells were incubated with indicated reagents. Cell images were taken with phase contrast microscopy. (B) Number of cells extending neurite-like structures of more than 40 μm and total cell number were counted from images taken in (A). More than 300 cells were examined in each sample. The proportion of cells extending neurite-like structures of more than 40 μm was indicated as a percentage of total cell number. An average of three experiments is shown. Error bars indicate S. E. between experiments. Data were analysed with student's t test. (C) Whole cell extracts were prepared from RA-treated SH-SY5Y cells after incubation with or without BDNF for 24 hours, and were analysed by SDS-PAGE. Immunoblotting was performed with the indicated antibodies. (D) Whole cell extract prepared from cells treated with both RA and BDNF was incubated with the indicated reagents for 1 hour at 37° C. Immunoblotting was performed with anti-NgR1 antibody. (E) RA-treated SH-SY5Y cells were incubated with BDNF in the presence or absence of one of the following: PKC inhibitor—500 nM Gö6983 or Gö6976; PKA inhibitor—2 μM KT5720 or a PKA inhibitor peptide 14-22; or either 500 nM or 1 μM of a casein kinase inhibitor, for 24 hours. Whole cell extracts prepared from these cells were analysed by SDS-PAGE. Immunoblotting was performed with anti-NgR1 antibody.
SH-SY5Y cells were cultured in Ham's F12 medium with 10% foetal bovine serum at 37° C. in 5% CO2 and 95% air. Passage numbers between 15 and 21 were used in experiments described in this paper. Further passages induce spontaneous differentiation and cells tend to extend neurites without BDNF (data not shown). For RA treatment, the cells are seeded (20,000 cells/well) on collagen IV coated 4 well chamber slides. After 24 hours culture, medium was changed to Ham's F12 medium containing 10 μM RA and 10% foetal bovine serum. Medium was changed to fresh medium on day 3 and cells were used for experiments after 5 days culture. Encinas et al. (18) reported that RA-treated SH-SY5Y cells initiate apoptosis after withdrawal of serum only when the cells are cultured at low density. The cell density used in this paper was higher than that in the paper by Encinas et al. (18) and cell death due to depletion of serum or BDNF was not significant. In this paper, the SH-SY5Y cells treated with RA for 5 days are called RA-treated SH-SY5Y. For BDNF treatment, the RA-treated SH-SY5Y cells were washed with serum-free Ham's F12 medium and incubated with 25 ng/ml BDNF in serum-free Ham's F12 medium for 24 hours. As a control (RA alone), the RA-treated SH-SY5Y cells were incubated with serum-free Ham's F12 alone for 24 hours.
Cells were scraped off from dishes and washed with PBS twice, and then resuspended in PBS containing 0.1% Triton X100 and phosphatase inhibitor cocktail (Roche) and EDTA-free protease inhibitor cocktail (Roche). After incubation for 15 min on ice, samples were centrifuged at 14,000×g for 20 min at 4° C. The supernatants containing 30 μg of proteins were analysed by SDS-PAGE and blotted to PVDF membrane. The PVDF membrane was incubated in blocking buffer (5% skimmed milk, 0.4% Triton X-100 in PBS) for 1 hour, first antibody diluted in the blocking buffer and appropriate secondary antibody labelled with horse radish peroxidase. Bound antibodies were visualised with ECL or ECL Plus kit (GE healthcare).

Nogo-A, LINGO-1 = experiment: Immunoblotting of Nogo-A and LINGO-1 in RA-treated SH-SY5Y cells; assay type: cell-based, human; settings: after BDNF treatment 24 hours
Protocol: as §1, with “Immunoblotting was performed with anti-NgR1 antibody. (E) RA-treated SH-SY5Y cells were incubated with BDNF in the presence or absence of one of the following: PKC inhibitor—500 nM Gö6983 or Gö6976; PKA inhibitor—2 μM KT5720 or a PKA inhibitor peptide 14-22; or either 500 nM or 1 μM of a casein kinase inhibitor, for 24 hours.” left out, “Immunoblotting was performed with anti-NgR1 antibody.” left out
Cells were scraped off from dishes and washed with PBS twice, and then resuspended in PBS containing 0.1% Triton X100 and phosphatase inhibitor cocktail (Roche) and EDTA-free protease inhibitor cocktail (Roche). […] The supernatants containing 30 μg of proteins were analysed by SDS-PAGE and blotted to PVDF membrane. […]

Molecule	location of Dil [1]	upper band of NgR1 (phosphorylated NgR1) (NgR1)	Nogo-A and LINGO-1 protein levels (Nogo-A, LINGO-1)
Nc1ncnc2c1ncn2[C@@H]1O[C@H](COP(=O)(O)OP(=O)(O)OP(=O)(O)O)[C@@H](O)[C@H]1O [ATP]	location of Dil was limited in the entorhinal side of the transection		
B1		increased	neither Nogo-A nor LINGO-1 showed significant changes
